According to the nanobody polyreactivity screen of Harvey et al. (2022):

Assay: yeast display, Sf9 membrane polyspecificity reagent, FACS + sequencing; frameworks hold sequencing errors
How it was run: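 Genes from sorted yeast were amplified by colony PCR, read by MiSeq 2 × 250 sequencing and filtered on CDR length. These cells carried a synthetic nanobody library in Saccharomyces cerevisiae BJ5465 and were sorted by FACS into low and high (top ~1%) gates on anti-HA and streptavidin fluorescence. Polyreactivity is labelled according to the gate of origin.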

Row | Sequence | polyreactivity (PSR sort gate)
1 | QVQLVESGGGLDQAGGSLRLSCAASGRIFKRYAMGWYRQAPGKERELVAAITRSGTRTYYADSVKGRFTISRDNAKNTVYLQMNSLKPEDTAVYYCAAALGWYSAFGYWGQGTQVTVSS | high polyreactivity
2 | QVQLVESGGGLFQAGGSLRLSCAASGSIFRDNVMVWYIHAPGKERELVAVITSGGSTNYADSVKGRFTISRDNAKNTVYLQMNSLKPEDTAVYYCNAAKTGSQSRLEYWGQGTQVTVSS | high polyreactivity
3 | QVQLGESRGGLVQAGGSLRLSCAASGIIFTFNAMVWYSQAPGKERELVAGISQGGSSTNYADSVKGRFTISRDNAKNTVDLQRNSLKREVTAVYYCAAYVDIVGDYWVVGYYYWGQGTQVTVSS | low polyreactivity
4 | QVQLVESGGALVQAGGSLRLSCAASGSTSVDYTMGWYRQAPGNDKDLVAAIDYNGDSTYYADSEKGRFTISRDNAKNTFYLQMNSLKPEDTAVYYCAADVWTLDPEVYDYWGPGTQVTVSS | low polyreactivity
5 | QVQLVESGGGLVQAGGSLRLSCAASGSTFARYAMGWYRHAPGKETELVAGIWNTGRTYYADSVKGRFTISRDNAKNTVYLQMNSLKPEDTAVYYCAALYNSPNVTYYYWGQGTQVTVSS | high polyreactivity
6 | QVQLVESGGGLVQAGGSLRLICAASGRTFAYYAMGWYIQAPGKERELVAAISSSGGRTYYADSVKGRFTISRDNAKNTVYLQMNSLKPEDTAVYFCAAYTTVKKNGYWGQGTQVTVSS | high polyreactivity
7 | QVQLVESGGGLVQAGGSLRLSCAASGFTVGVYAMGWYRQAPGKERELVAAISSGGSTNYADSVKGRFTISRDNAKNTVYLQMNSLKPEDTAVYYCAADAVSGGQGTADYDYWGQGTQVTVSS | low polyreactivity
8 | QVQLVESGGGLVQAGGSLRLSCAASGSIFSKYTMGWYRQAPGKERELVAAIRGSGVRTYYADSVKGRFTISRDNAKNTVYLQMNSLKPEDTAVYYCAKVVYRGKVALWISSTAGSDYWGQGTQVTVSS | low polyreactivity
9 | QVQLVESGAGLVQAGGSLRLSCAASGFTFAFYAMGWSRQAPGKERELVAAITGSGGSTYYADSVKGRFTISRDNAKNTVYLQMNSLIPEVTAVYYCNNYTYYSRMDYWGPGTQVTVSS | high polyreactivity
10 | QVQLVESGGGLVQAGGSLRLSCAASGSIFVLYAMGWYRQAPGKERELVAAISWRGGGTYYADSVKGRFTISRDNAKNTVYLLMNSLKPEDTAVYYCAAEYRLDAILYTYEFDYWGQGTQVTVSS | high polyreactivity
11 | QVHLVESGGGLVQAGGSLRLSCAASGRIFAYYTMGWNRQAPGKERELVARITKNGGSTYYAESVKGRFTISRDNAKNTVYLQMNSLKPEDTAVYYCNADSGYTGRRTRERYYYWGQGTQVTVSS | high polyreactivity
12 | QVQLVESGGGLVHAGGSLRLSCAASGFTFFKYAKGWYRQAPGKERELVATISIDGITNYADSVKGRFTISRHNAKNTVYLQMNSLKPEDTAVYYCHARSLYQQLGYWGQGTQVTVSS | low polyreactivity
13 | QVHLVESGGGLVQAGGSLRLSCAASGSIFYVYAMGWYRQAPGKERELVAAITSSGTTNYADSVKGRFTISRDNAKNTVYLQMNSLKPEDTAVYYCAADPDSGQVPFDYWGQGTQVTVSS | low polyreactivity
14 | QVQLVESGGGIVQAGVSLRLSCAASGISYSPNVMGWYRQAPGKERELVASISSGGSTYYADSVNGRFTISRDNATNSVYLQMNSLKPEDTAVYYCAAEVDGYWTYYYWGQGTQVTVSS | low polyreactivity
15 | QVQLVESGGGLVQAGGSLRLSCAASGRIFGINAMGWYRQGPGKERELVAASRSSDVSTYNADSVKGRFTISRDNAKNTVYLQMNSLKPEDTAVYYCAAAYRTQIYRNEYWGQGTQVTVSS | low polyreactivity
16 | QVQLVESGGGLVQAGGSLRLSCAASGFTFFKYAMGWYRQAPGKERELVAAITRNGGRTYYADSVKGRFTISRDYAKNTVYLQMNSLKPEDTAVYYCNAASVNGGRDFDYWGQGTQVTVSS | high polyreactivity
17 | QVQLVESGGGLVQSGGSLRLSCAASGRTFGGYAMGWYRQAPGKERELVAAIRRSGGSTYYADSVKGLFTISRDNAKNTFYLQMKSMKPEDTAVYYCAAYGIYNVRIYYLGQGTQVTVSS | high polyreactivity
18 | QVQLVESGGGLVQAGGSLRLSCDASVSIFVANAMGWSRQATGKERELVAAITGRGSRTYYADSVKGRFTISRDNAKNTVYLQMNSLKPEDTAVYYCADRYTNYGGYYWGQGTQVTVSS | high polyreactivity
19 | QVQLVESGGGLVQAGGSLRLSCAASGFTITNYAMGWYRQAPGKERELVAAISTGGGRTYYADSVKGRFTISRDNAKNTVYLQMYSLKPEDTAVYYCAVVPYNISKTEQPGMDYWGQGTQVTVST | high polyreactivity
20 | QDQLVESGGGLVQAGGSLRLSCAASGRIFGINAMGWYIPAPGKERELVAAINWSGGSTYYADSVKGRFTISRDNAKNTVYLQMNSLKPEDTAVYYCATYQAGYYQSTYDYWGPGTQVTVSS | high polyreactivity
21 | QVQLVESGGGLVQAGGSLRLSCAASGFIIKSYAMGWYRQAPGKERELVAAISYTGSITYYADSVKGRFTISRDNAKNTVYLQMNSLKPEDTAVYYCAVGRYADQHDYWGQGTQVTVSS | high polyreactivity
22 | QVQLVESGGGLVQAGGSLSLSCAASGRTFNNNAMGCYIPAPGKERELVAAITSGASTNYADSVKGRFTISRDNAKNTVYLQMNSLKPEDTAVYYCAKATYPHEYDYWGQGTQVTVSS | low polyreactivity

Row | Sequence | polyreactivity (PSR sort gate)
23 | QVQLVESGGGLLQAGGSLRLSCAASGSTFRAYTMGGYRPAPGKVREFVASITRSGGSTNYADSVKGRFTISRDNAKNTVYLQMNSLKPEDTAGYYCAAGYWRIHYQHFRSRDYWGQGTQVTVSS | high polyreactivity
24 | QVHLVESGGGLVQAGGSLRLSCSASGITFLTYTMGWYRQEPGKERELVASIRYSTGSTYYADSVKGRFTISRDNAKNTVYLQMNSLKPEDTAVYYCNDYSSYIKYDYWGQGTQVTVTS | high polyreactivity
25 | QVQLVESGAGLVQAGGSLRLSCAASGFTFDNYVMGWYRQAPGKERELVAAISKSGTSTYYADSVKGRFTISRDNAKNTVYLQMNSLKPEDTAVYYCAAALPGYGDYYYWGQGTLVTVSS | high polyreactivity
26 | QVQVVESGGGFVQAGGSLSLSCAASGSTFPYYVMGCYREAPGKERELVAAISGSGTRTYYADSVKGRFTISRDNAKNTVYLQMNSLKPEDTAVYYCAARKYPQGFDYWGQGTQVTVSS | low polyreactivity
27 | QVQLVESGGGLVQAGGSLRLSCAASGRTFVGYSMGWYRQAPGKEREFVATITSSGRTNYADSVKGRFTISRDNAKNTVYLQMNSLKPEDTAVYYCNAVYGRFVDLRYDYWGHGTQVTVSS | high polyreactivity
28 | QVQLVESGGGLVQAGGSLRLSCAASGRIFRYNAMGWYRQAPGKERELVASISSSGGSTYYADSVKGRFTISRDTAKNTVYLQMNCLKPEDTAVYYCSAYPGDRHSRINLGYWGQGTQVTVSS | high polyreactivity
29 | QVQLVESGGGLVQAGGSLRLSCAASGSTFSTNAMGWYRQAPAKERELVAAISYSGGSTYYADSVKGRFTISRDNAKNTVYLQMLSLKPEDTAVYYCAADGYYYNSGGRYYEFYYWGQGTQVTVSS | low polyreactivity
30 | QVQLVESGGGLVQAGGSLRLSCAASGRIFVHYAMGWYRQAPGKERELVAAITSGSSTNYADSVKGRFTISRDNAKNTVYLQMNSLKPEDTAVYYCAADYSVHMVRDRWFDYWGQGTQVTVSS | low polyreactivity
31 | QVQLVESGGGLVQAGGSLRLSCAASGFIFFYAMGWYRQAPGKERELVASIDSGVSTDYADSVKGRFTISRDNAKNTDYLQMNSLKTEDTAVYYCAADYRAPLEYWGQGTQVTVSS | low polyreactivity
32 | QVQLVESGGGLVQAGGSLRLSCAASGFIFRDYEMGWYRQAPGKERELVAAISWRGGTYYADSVKGRFTISRDNAKNTVYLQMNSLKPEDTAGYYCNATRYRLRPSGVRYKYNYWGQGTQVTVSS | low polyreactivity
33 | QVQLVESGGGLVQAGGSLRLSCAASGRIFLSYTMGWYRQAPGKERELVAAITSGGSTYYADSVKGRFTISRDNAKNTVYLQMNSLKPEDTAVYYCATDYGYSWYDYWGQGTQVTVSS | low polyreactivity
34 | QVQLVESGGGLVQAGGSLRLSCAASGSIFDYYAMGWYRQAPGKERELVSTYYADSVKGRFTISRDNAKNTVYLQMNSLKPEDTAVYYCAKDRGTTGIRDGPAASLYGYEYWGQGTQVTVSS | low polyreactivity
35 | QVQLVESGGGLVQAGGSLRLSCAASGNHLRSLCLGWYRQAPGKERELVAAITSSGASTYYADSVKGRFTISRDNAKNTVYLQMNSLKPEDTAVYYCAAYLFRRYDYWGQGTQVTVSS | low polyreactivity
36 | QVQLVESGGGLVQAGGSLRLSCAASGLIFIGYAKGWSRQAPGKERELVASIRGVGSTNYADSVKGRFTISRDNAKNTVYLQMHSLKPEDTAVYYCATSVDRALYTQTRGDYDYWGQGTQVTVSS | low polyreactivity
37 | QVQLVESWGGLVQAGGSLRLSCAASGSTFIQNAMGWYRQAPGKERELVAAITSGGGTNYADSVKGRFTISRDNAQNTVYLQMNSLKPEDTAVYYCAAEPFNYDDFWFGWEYQYEYWGQGTQVTVSS | low polyreactivity
38 | QVQHVESAGGLVQAGGSLRLSCAASGRTFDYNAMGWYRQAPGKERELVAAISWRGGNTYYADSVKGRFTISRDNAKNTVYLQMNSLKPEDTAVYYCGAVYRYSTRNYGYWGQGTQVTVSS | high polyreactivity
39 | QVQLVESGGGLVQAGGSLRLSCAASGSTFWYYAMGWYRQAPGKERELVAAISRSTGSTYYADSVKGRFTISRDNAKNTVYLQMNSLKPEDTAVYYCNKDPVPSFFIPEIGYSEYDYWGQGTQVTVSS | low polyreactivity
40 | QVQLVESGGGLVQAGGSLRLSCPASGRIFKWYAMGWYRPAPGKERELVAAISWSGGRTYYADSVKGRFTISRDNAKNTVYLQMHSVKPEDTAVYYCAAAIRYRNYVYLYDYWGQGTQVTVSS | high polyreactivity
41 | QVQLVESGGGLVHAGGSLRLSCAASGRIFTPYAMGWYRQAPGKERELVAAISGRGGSTYYADSVKGRFTISRDNAKNTVYLQMNSLKPEDTAVYYCAATYFYVYDYWLDYWGQGTQVTVSS | high polyreactivity
42 | QVQLVESGGGLVQAGGSLRLSCAASGSIFLRYAMGWYRQAPGKERELVAAISGRGGSTYYADSVKGRFTISRDNAKNTVYLQMNSLKPEDTAVYYCAAYRGRSLEYDYWGQGTQVTVSS | high polyreactivity
43 | QVQLVESGGGLVQAGGSLRLSSAASGSTSYYYVMGWYRQAPGKERELVAAISNGDTTNYADSVKGRITITRDNEKNTVYLQMNSLKPEVTAVDYCAAVYYRSFHDYGYWGQGTQVTVSS | low polyreactivity
